In patent publication US20210393800A1, “PREPARATION AND APPLICATION OF SUPRAMOLECULAR SELF-ASSEMBLED HYALURONIC ACID HYDROGEL” (PHI BioMed Inc., priority 2018, published 2021):

Experiment: Protein release experiment (EGF in supernatant by HPLC)
Type: physicochemical
Details: 20 ug/ml in HA-Ad/HA-CD hydrogel, 500 ul PBS; for amount of EGF released over time (rank order): supernatant by HPLC according to date
Protocol: Aldehyde groups were introduced to the hyaluronic acid-adamantane (HA-Ad) derivative and hyaluronic acid (HA) using […].
The HA-Ad derivative and HA, to which the aldehyde group had been introduced, were allowed to react with an EGF protein using sodium cyanoborohydride to induce an aldehyde-amine reaction, thereby preparing conjugates. Through the aldehyde-amine reaction, a HA-Ad-EGF conjugate and a HA-EGF conjugate were prepared.
Each of EGF, the prepared HA-Ad-EGF conjugate, and the prepared HA-EGF conjugate was added at a concentration of 20 ug/ml to a 5 wt % hyaluronic acid-adamantane (HA-Ad) derivative solution. 50 ul of a 5 wt % hyaluronic acid-cyclodextrin (HA-CD) derivative solution was added to 50 ul of each of the resulting solutions and then mixed to prepare a hydrogel.
The hydrogel was input into an E-tube and centrifuged to remove air bubbles inside the gel. 500 ul of PBS was added to each hydrogel.
The concentration of EGF included in a supernatant was analyzed by high-performance liquid chromatography (HPLC) according to date.

| Substance | amount of EGF released over time (rank order) | protein release behaviour |
| --- | --- | --- |
| EGF: EGF protein used by itself in preparation of the hydrogel | HA-Ad-EGF<HA-EGF<EGF | – |
| HA-Ad-EGF: EGF protein bound to aldehyde-modified HA-Ad derivative through an aldehyde-amine reaction; carried in the hydrogel | HA-Ad-EGF<HA-EGF<EGF | release a constant concentration of protein most slowly for a long period of time |
| HA-EGF: EGF protein bound to aldehyde-modified hyaluronic acid through an aldehyde-amine reaction; carried in the hydrogel | HA-Ad-EGF<HA-EGF<EGF | – |
